# Patent publication US12692294B2, “Engineered NRG-1 variants with improved selectivity toward ErbB4 but not against ErbB3” (Amgen Inc., priority 2021, dated 2026)
# Residue numbers refer to the chain shown, from its start. Numbers in names are those of the source. Where no limit is named, active and inactive come without a cut-off here. Where “and” joins values, the source holds several entries; their conditions need not be identical. Identical values can stand only once.
# B1: :huFcSEFL2(desK)vl31(+):G4SG4:huNRG1(S177-Q237)(NRGE1C): N-terminal Fc fusion of NRG1 variant SEQ ID NO:124 (protein)
# chain: DKTHTCPPCPAPELLGGPSVFLFPPKPKDTLMISRTPEVTCVVVDVSHEDPEVKFNWYVDGVEVHNAKTKPCEEQYGSTYRCVSVLTVLHQDWLNGKEYKCKVSNKALPAPIEKTISKAKGQPREPQVYTLPPSREKMTKNQVSLTCLVKGFYPSDIAVEWESNGQPENNYKTTPPVLKSDGSFFLYSKLTVDKSRWQQGNVFSCSVMHEALHNHYTQKSLSLSPGGGGGSGGGGSHLVKCGEKHKSFCVNGGECFMIEGPSNPSRYLCKCPNEFTGDRCQEDFMASFYKAEELYQDKTHTCPPCPAPELLGGPSVFLFPPKPKDTLMISRTPEVTCVVVDVSHEDPEVKFNWYVDGVEVHNAKTKPCEEQYGSTYRCVSVLTVLHQDWLNGKEYKCKVSNKALPAPIEKTISKAKGQPREPQVYTLPPSREEMTENQVSLTCLVEGFYPSDIAVEWESNGQPENNYETTPPVLDSDGSFFLYSDLTVDKSRWQQGNVFSCSVMHEALHNHYTQKSLSLSPGK
# modifications: huFcSEFL2(desK)v131(+)G4SG4huNRG1(S177-Q237) (NRGE1C)
# B2: :huFcSEFL2(desK)vl31(+):G4SG4:huNRG1(S177-Q237)(NRGE1D): N-terminal Fc fusion of NRG1 variant SEQ ID NO:131 (protein)
# chain: B1 chain with K244S, F256Y, I258V, P261S, N263I
# modifications: huFcSEFL2(desK)v131(+)G4SG4huNRG1(S177-Q237) (NRGE1D)
# B3: :huNRG1(S177-F229)(NRGE1C)::2X(G4A)G4::huFcSEFL2v131(+): Fc fusion of NRG1 variant SEQ ID NO:117 (protein)
# chain: SHLVKCGEKHKSFCVNGGECFMIEGPSNPSRYLCKCPNEFTGDRCQEDFMASFGGGGAGGGGAGGGGDKTHTCPPCPAPELLGGPSVFLFPPKPKDTLMISRTPEVTCVVVDVSHEDPEVKFNWYVDGVEVHNAKTKPCEEQYGSTYRCVSVLTVLHQDWLNGKEYKCKVSNKALPAPIEKTISKAKGQPREPQVYTLPPSREKMTKNQVSLTCLVKGFYPSDIAVEWESNGQPENNYKTTPPVLKSDGSFFLYSKLTVDKSRWQQGNVFSCSVMHEALHNHYTQKSLSLSPGKDKTHTCPPCPAPELLGGPSVFLFPPKPKDTLMISRTPEVTCVVVDVSHEDPEVKFNWYVDGVEVHNAKTKPCEEQYGSTYRCVSVLTVLHQDWLNGKEYKCKVSNKALPAPIEKTISKAKGQPREPQVYTLPPSREEMTENQVSLTCLVEGFYPSDIAVEWESNGQPENNYETTPPVLDSDGSFFLYSDLTVDKSRWQQGNVFSCSVMHEALHNHYTQKSLSLSPGK
# modifications: huNRG1(S177-F229)(NRGE1C) ::2X(G4A)G4::huFcSEFL2v131(+)
# B4: :huNRG1(S177-F229)(NRGE1C)::2X(G4E)G4::huFcSEFL2v131(+): Fc fusion of NRG1 variant SEQ ID NO:117 (protein)
# chain: B3 chain with A58E, A63E
# modifications: huNRG1(S177-F229)(NRGE1C) ::2X(G4E)G4::huFcSEFL2v131(+)
# B5: :huNRG1(S177-F229)(NRGE1D)::2X(G4A)G4::huFcSEFL2v131(+): Fc fusion of NRG1 variant SEQ ID NO:126 (protein)
# chain: B3 chain with K9S, F21Y, I23V, P26S, N28I
# modifications: huNRG1(S177-F229)(NRGE1D) ::2X(G4A)G4::huFcSEFL2v131(+)
# B6: :huNRG1(S177-F229)(NRGE1D)::2X(G4E)G4::huFcSEFL2v131(+): Fc fusion of NRG1 variant SEQ ID NO:126 (protein)
# chain: B3 chain with K9S, F21Y, I23V, P26S, N28I, A58E, A63E
# modifications: huNRG1(S177-F229)(NRGE1D) ::2X(G4E)G4::huFcSEFL2v131(+)
# B7: Wild-type as control: wild-type neuregulin sequence used as control in the Akt assays; construct not specified (wild-type fragment: SEQ ID NO: 112) (protein)
# chain: SHLVKCAEKEKTFCVNGGECFMVKDLSNPSRYLCKCPNEFTGDRCQNYVMASFYKAEELYQ
# modifications: chains of the parent or of the whole protein
# B8: huNRG1(S177-S228)(NRGE1C)::3x(G4Q)::huFcSEFL2 (Pb): Fc fusion of NRG1 variant SEQ ID NO:116 (protein)
# chain: STYRCVSVLTVLHQDWLNGKEYKCKVSNKALPAPIEKTISKAKGQPREPQVYTLPPSREEMTKNQVSLTCLVKGFYPSDIAVEWESNGQPENNYKTTPPVLDSDGSFFLYSKLTVDKSRWQQGNVFSCSVMHEALHNHYTQKSLSLSPGK
# modifications: huNRG1(S177-S228)(NRGE1C)::3x(G4Q)::huFcSEFL2 (Pb)
# B9: huNRG1(S177-S228)(wt)::3x(G4Q)::huFcSEFL2 (Pb): Fc fusion of wild-type NRG1 fragment S177-S228 (protein)
# chain: B8 chain
# modifications: huNRG1(S177-S228)(wt)::3x(G4Q)::huFcSEFL2 (Pb)
# B10: huNRG1(S177-F229)(NRGE1C) 6xHis: 6xHis-tagged NRG1 variant SEQ ID NO:117 (protein)
# chain: SHLVKCGEKHKSFCVNGGECFMIEGPSNPSRYLCKCPNEFTGDRCQEDFMASFGGGGEGGGGAGGGGHHHHHH
# modifications: 6xHis tag; huNRG1(S177-F229)(NRGE1C) 6xHis
# B11: huNRG1(S177-F229)(NRGE1C) (D48T_F49Q_M50I) 6xHis: 6xHis-tagged NRG1 variant SEQ ID NO:118 (protein)
# chain: B10 chain with D48T, F49Q, M50I
# modifications: 6xHis tag; huNRG1(S177-F229)(NRGE1C) (D48T_F49Q_M50I) 6xHis
# B12: huNRG1(S177-F229)(NRGE1C) (E47A_D48P_F49H_M50I) 6xHis: 6xHis-tagged NRG1 variant SEQ ID NO:119 (protein)
# chain: B10 chain with E47A, D48P, F49H, M50I
# modifications: 6xHis tag; huNRG1(S177-F229)(NRGE1C) (E47A_D48P_F49H_M50I) 6xHis
# B13: huNRG1(S177-F229)(NRGE1C) (E47K_D48T_F49S_M50L) 6xHis: 6xHis-tagged NRG1 variant SEQ ID NO:120 (protein)
# chain: B10 chain with E47K, D48T, F49S, M50L
# modifications: 6xHis tag; huNRG1(S177-F229)(NRGE1C) (E47K_D48T_F49S_M50L) 6xHis
# Target: T1, ErbB4 (Rattus norvegicus, UniProt Q62956)
# T1 construct: forming the ErbB2/ErbB4 complex in cardiomyocytes and the ErbB2/ErbB3 complex in Schwann cells; endogenous in cells; host or cells: primary neonatal rat cardiomyocytes (Sprague Dawley pups, 0 to 4 days old)
# Experiment: In vitro phosphorylation of Akt in neonatal rat cardiomyocytes
# Assay type: cell-based
# Conditions: Akt (Serine 473) phosphorylation, neonatal rat cardiomyocytes, 15 minutes treatment; read-out: Cardiomyocyte (CM) (ErbB4) Avg EC50
# Experimental: (§1) In Vitro Phosphorylation of Akt in Neonatal Rat Cardiomyocytes and Rat Schwann Cells by Neuregulin Variants
# (§2) Specificity of neuregulin variants towards cardiomyocytes (ErbB4) versus Schwann cells (ErbB3) was tested by measuring Akt activity generated by formation of the ErbB2/ErbB4 and ErbB2/ErbB3 complexes. Upon activation by neuregulin, the ErbB4 and ErbB3 receptors dimerize preferentially with the ErbB2 co-receptor, forming the ErbB2/ErbB4 complex in cardiomyocytes and the ErbB2/ErbB3 complex in Schwann cells, both of which signal through the Akt pathway. Neonatal rat cardiomyocytes were isolated from hearts of Sprague Dawley rat pups at 0 to 4 days old according to manufacturer's protocol using the Neomyt kit and plated on Surecoat plates in NS media containing serum (all from Cellultron Life Technologies, Baltimore, MD). Rat Schwann cells were plated in Poly-D-Lysine coated plates with Dulbecco's modified Eagle's media (DMEM) supplemented with fetal bovine serum (Thermo Fisher) and forskolin (Millipore Sigma).
# (§3) After a 24-hour incubation in a humidified incubator maintained at 37° C. and 5% CO2, cardiomyocytes and Schwann cells were washed with serum free media and incubated an additional 16 hours in DMEM supplemented with bovine serum albumin (Sigma). Both cell lines were then treated with titrations of the neuregulin variant molecules for 15 minutes, upon which cells were lysed in lysis buffer (Meso Scale Discovery (MSD)). For detection of Akt phosphorylation, lysates were added to the Multi-Spot 96-Well 4-Spot Phospho (Serine 473)/Total Akt plates (MSD), incubated according to the manufacturer's protocol and read in the SECTOR Imager 6000 (MSD). For both cell assays, the percent phosphorylation of Akt was calculated by multiplying the phospho Akt signal by 2, then dividing by the phospho Akt signal added to the total Akt signal and then multiplying by 100. The phosphorylation of Akt data points were fitted using a log (agonist) versus response, variable slope (4 parameters) analysis in GraphPad Prism to generate EC50 curves. The CM % agonism reflect the top value of the data points.
# T1 sequence (Q62956 26-1308): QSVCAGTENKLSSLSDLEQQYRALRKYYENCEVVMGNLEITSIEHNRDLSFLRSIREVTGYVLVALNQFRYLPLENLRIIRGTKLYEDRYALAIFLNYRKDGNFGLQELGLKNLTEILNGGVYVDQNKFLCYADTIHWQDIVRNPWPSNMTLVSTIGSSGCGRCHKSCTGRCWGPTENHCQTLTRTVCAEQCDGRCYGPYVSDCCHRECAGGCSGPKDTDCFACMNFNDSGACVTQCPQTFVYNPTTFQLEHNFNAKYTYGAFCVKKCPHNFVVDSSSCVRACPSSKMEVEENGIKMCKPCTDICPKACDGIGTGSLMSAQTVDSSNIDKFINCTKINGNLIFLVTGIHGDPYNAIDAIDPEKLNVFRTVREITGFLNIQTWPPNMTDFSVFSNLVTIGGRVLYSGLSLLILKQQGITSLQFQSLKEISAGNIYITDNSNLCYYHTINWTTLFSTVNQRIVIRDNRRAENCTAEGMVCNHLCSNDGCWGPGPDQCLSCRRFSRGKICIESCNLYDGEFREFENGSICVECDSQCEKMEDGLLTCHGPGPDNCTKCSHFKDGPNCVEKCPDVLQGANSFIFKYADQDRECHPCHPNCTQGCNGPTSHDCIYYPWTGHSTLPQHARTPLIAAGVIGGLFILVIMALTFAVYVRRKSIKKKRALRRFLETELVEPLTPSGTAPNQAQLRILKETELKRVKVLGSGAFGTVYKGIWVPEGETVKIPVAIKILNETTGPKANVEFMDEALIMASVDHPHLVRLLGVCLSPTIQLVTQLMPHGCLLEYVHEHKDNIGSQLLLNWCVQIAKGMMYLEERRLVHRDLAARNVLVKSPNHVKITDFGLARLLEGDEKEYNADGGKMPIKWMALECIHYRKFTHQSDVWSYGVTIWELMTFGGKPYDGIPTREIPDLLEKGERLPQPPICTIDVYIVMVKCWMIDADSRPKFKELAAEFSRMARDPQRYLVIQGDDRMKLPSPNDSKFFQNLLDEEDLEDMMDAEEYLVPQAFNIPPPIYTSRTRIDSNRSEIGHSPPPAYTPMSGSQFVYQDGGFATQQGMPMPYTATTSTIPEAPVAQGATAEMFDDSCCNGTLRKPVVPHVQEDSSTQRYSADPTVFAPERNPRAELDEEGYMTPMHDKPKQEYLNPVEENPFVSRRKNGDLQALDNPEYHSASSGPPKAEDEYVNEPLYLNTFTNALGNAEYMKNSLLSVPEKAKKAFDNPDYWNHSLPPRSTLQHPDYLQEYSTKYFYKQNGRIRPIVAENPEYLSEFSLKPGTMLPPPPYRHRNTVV
# T1 sequence (P06494 23-1257 partner): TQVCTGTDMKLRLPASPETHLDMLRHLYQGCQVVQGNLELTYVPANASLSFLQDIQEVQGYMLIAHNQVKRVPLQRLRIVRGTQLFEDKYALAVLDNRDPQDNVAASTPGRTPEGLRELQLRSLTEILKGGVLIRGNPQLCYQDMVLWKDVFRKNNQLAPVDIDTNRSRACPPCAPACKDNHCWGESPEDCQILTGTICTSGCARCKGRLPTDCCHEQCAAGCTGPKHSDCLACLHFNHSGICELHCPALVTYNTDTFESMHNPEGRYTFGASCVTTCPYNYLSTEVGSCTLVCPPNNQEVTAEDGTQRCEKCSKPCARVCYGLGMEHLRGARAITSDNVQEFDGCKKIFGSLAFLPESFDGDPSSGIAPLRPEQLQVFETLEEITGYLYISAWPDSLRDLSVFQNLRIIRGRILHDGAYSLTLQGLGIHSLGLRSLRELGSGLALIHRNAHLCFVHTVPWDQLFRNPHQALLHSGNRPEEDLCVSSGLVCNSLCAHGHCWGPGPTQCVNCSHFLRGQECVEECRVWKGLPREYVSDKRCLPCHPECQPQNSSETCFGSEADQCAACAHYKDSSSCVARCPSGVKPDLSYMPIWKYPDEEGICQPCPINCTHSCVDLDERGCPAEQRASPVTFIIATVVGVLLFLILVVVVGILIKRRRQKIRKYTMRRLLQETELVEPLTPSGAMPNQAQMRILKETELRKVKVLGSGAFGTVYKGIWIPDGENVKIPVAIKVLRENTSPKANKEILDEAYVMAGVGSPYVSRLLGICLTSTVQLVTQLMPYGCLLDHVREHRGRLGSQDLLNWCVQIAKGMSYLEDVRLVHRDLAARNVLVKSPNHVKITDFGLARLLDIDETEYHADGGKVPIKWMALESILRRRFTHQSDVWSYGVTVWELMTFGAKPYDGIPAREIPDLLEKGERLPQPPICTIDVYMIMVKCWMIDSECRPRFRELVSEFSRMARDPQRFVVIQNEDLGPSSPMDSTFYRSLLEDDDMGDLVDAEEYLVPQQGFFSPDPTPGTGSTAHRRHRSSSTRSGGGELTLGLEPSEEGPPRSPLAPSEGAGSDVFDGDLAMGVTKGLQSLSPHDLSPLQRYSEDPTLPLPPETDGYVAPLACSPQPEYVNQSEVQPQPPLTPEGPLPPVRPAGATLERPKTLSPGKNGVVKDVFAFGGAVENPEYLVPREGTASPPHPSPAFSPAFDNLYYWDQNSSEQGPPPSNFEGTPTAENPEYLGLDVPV
row,Molecule,EC50
1,B1,0.3 nM
2,B2,0.23 nM
3,B3,3.4 nM
4,B4,2.9 nM
5,B5,2 nM
6,B6,1.9 nM
7,B7,0.15 nM and 0.154 nM and 0.28 nM and 0.253 nM
8,B8,14.8 nM
9,B9,2.6 nM
10,B10,1.44 nM
11,B11,0.712 nM
12,B12,1.1 nM
13,B13,0.825 nM

# Same assay, conditions: ratio of EC50s Schwann cells/cardiomyocytes
row,Molecule,Selectivity SC/CM
1,B1,>10000
2,B2,>10000
3,B3,>10000
4,B4,>10000
5,B5,>10000
6,B6,>10000
7,B8,53
8,B9,0.03
9,B10,>10000
10,B11,>10000
11,B12,>10000
12,B13,>10000

# Same assay, conditions: top value of the Akt phosphorylation data points in cardiomyocytes; wild-type control 100
row,Molecule,CM % Agonism AVG [%]
1,B1,85.4
2,B2,88.7
3,B3,91.6
4,B4,94
5,B5,87.1
6,B6,91.9
7,B10,106
8,B11,105.7
9,B12,96.47
10,B13,91.82

# Target: T2, ErbB3 (Rattus norvegicus, UniProt Q62799)
# T2 construct: forming the ErbB2/ErbB4 complex in cardiomyocytes and the ErbB2/ErbB3 complex in Schwann cells; endogenous in cells; host or cells: rat Schwann cells
# Experiment: In vitro phosphorylation of Akt in rat Schwann cells
# Assay type: cell-based
# Conditions: Akt (Serine 473) phosphorylation, 15 minutes treatment
# Experimental: as §1, §2, §3
# T2 sequence (Q62799 20-1339): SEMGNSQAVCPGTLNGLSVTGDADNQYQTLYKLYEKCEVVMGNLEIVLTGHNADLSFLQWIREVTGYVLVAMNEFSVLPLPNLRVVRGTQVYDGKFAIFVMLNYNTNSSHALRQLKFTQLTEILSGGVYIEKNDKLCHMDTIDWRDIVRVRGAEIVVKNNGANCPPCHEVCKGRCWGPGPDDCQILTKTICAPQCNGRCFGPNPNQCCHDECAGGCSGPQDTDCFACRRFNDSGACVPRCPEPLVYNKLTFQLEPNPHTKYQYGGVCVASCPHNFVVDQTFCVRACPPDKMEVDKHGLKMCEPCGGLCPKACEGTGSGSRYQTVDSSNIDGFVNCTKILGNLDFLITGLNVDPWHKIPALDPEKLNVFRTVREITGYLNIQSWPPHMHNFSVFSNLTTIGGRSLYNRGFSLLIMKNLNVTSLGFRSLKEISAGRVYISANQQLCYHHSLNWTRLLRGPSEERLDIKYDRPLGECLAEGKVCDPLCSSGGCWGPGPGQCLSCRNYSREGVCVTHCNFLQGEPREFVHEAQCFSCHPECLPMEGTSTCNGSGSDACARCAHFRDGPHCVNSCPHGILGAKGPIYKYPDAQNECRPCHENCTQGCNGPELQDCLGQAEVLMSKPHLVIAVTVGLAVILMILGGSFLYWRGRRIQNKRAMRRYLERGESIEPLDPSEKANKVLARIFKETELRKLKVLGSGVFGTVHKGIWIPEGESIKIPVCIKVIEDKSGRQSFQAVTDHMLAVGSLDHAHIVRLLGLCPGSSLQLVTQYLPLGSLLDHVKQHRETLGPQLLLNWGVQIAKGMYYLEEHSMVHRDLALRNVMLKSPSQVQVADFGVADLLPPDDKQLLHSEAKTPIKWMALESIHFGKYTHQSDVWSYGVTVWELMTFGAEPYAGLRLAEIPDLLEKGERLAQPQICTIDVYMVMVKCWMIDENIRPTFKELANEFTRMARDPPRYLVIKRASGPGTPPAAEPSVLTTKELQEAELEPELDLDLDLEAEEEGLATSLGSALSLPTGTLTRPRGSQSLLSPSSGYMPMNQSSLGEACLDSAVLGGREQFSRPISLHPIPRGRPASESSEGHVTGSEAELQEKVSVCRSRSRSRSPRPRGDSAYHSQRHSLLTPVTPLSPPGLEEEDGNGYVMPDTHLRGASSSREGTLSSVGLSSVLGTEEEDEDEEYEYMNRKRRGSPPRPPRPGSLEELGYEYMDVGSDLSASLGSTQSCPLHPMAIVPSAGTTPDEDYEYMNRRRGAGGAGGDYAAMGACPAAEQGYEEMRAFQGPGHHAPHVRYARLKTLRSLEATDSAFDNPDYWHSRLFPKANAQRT
# T2 sequence (P06494 23-1257 partner): as the sequence (P06494 23-1257 partner) above
row,Molecule,Schwann cells (SC) (ErbB3) Avg EC50 (M)
1,B1,inactive
2,B2,inactive
3,B3,inactive
4,B4,inactive
5,B5,inactive
6,B6,inactive

# Same assay, conditions: Akt (Serine 473) phosphorylation, 15 minutes treatment, read-out: Schwann cells (SC) (ErbB3) Avg EC50
row,Molecule,EC50 [nM]
1,B8,783
2,B9,0.07
3,B10,10000
4,B11,10000
5,B12,10000
6,B13,10000
